Measurements: patent US20140087995A1 (published 2014)
One block for each binder: values may come before it. Numbered stars: 1 amine (or outer) side, 2 acyl side, 3 side chain; on linkers, the order of the positions; unused ones are H or OH. Bridge positions count the residues as written; N and C are the ends. Side chains are listed from the residue outwards. Ends that are not written are not given here. * marks the point of attachment. C20 diacid = O=C(O)CCCCCCCCCCCCCCCCCCC(=O)*; γGlu = O=C(O)[C@H](CCC(=O)[*:2])N[*:1]

How the values were obtained:
[1] = target: T1, human amylin 3(a) receptor (human calcitonin receptor plus RAMP-3) (human, UniProt P30988 25-474; O60896 24-148, limits assumed); experiment: SPA competition binding, displacement of 125I-rat amylin from membranes of Amylin 3(a)/CRE-luc BHK cells (Assay V)
T1 construct: whole, on cells; Whole cells in the luciferase assay (Assay II a); also called hAmylin-R; human amylin receptor
T1 sequence (looked up) 1: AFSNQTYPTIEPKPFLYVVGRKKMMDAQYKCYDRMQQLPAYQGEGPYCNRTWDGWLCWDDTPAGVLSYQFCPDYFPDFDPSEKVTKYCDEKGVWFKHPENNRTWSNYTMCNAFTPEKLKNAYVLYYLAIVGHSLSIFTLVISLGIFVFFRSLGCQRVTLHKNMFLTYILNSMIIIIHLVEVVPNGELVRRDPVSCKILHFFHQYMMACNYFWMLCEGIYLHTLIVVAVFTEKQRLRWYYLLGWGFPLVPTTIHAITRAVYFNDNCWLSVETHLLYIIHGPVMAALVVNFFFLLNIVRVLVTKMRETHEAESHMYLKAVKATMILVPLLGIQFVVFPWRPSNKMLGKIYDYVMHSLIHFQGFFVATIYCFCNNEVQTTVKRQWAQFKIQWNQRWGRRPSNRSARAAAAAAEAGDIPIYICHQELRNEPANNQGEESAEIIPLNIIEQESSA
T1 sequence (looked up) 2: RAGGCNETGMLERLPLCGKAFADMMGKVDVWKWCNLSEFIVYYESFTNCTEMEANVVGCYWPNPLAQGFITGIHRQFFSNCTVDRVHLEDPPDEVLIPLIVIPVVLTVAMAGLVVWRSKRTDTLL
Procedure, shortened: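 Membranes from BHK Amylin 3(a)/CRE-luc cells (35 ng/μL final) were mixed with SPA beads and test compounds in 50 mM Hepes pH 7.4 with 1 mM CaCl2, 5 mM MgCl₂, 0.1% OA and 0.02% Tween20. Incubation ran 120 min at 25° C with shaking; IC₅₀ came from one-site competition fitting.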

[2] = target: T1, human amylin 3(a) receptor (human …); experiment: cell-based or functional assay
[3] = target: T2, human calcitonin receptor (human, UniProt P30988 25-474); experiment: cell-based or functional assay
T2 sequence (looked up): T1 sequence (looked up) 1

B1: N^ε1-[(4S)-4-carboxy-4-(19-carboxynonadecanoylamino)butanoyl]-[Glu14,Arg17,Pro21,Pro27,His34,Glu35]-h-amylin (peptide)
peptide: K([γGlu-C20 diacid])CNTATCATQRLAEFLRHSSPNFGAIPSSTNVGHETY-NH2
modifications: disulfide 2-7; N-terminus assumed
SMILES: CC[C@H](C)[C@H](NC(=O)[C@H](C)NC(=O)CNC(=O)[C@H](Cc1ccccc1)NC(=O)[C@H](CC(N)=O)NC(=O)[C@@H]1CCCN1C(=O)[C@H](CO)NC(=O)[C@H](CO)NC(=O)[C@H](Cc1c[nH]cn1)NC(=O)[C@H](CCCNC(=N)N)NC(=O)[C@H](CC(C)C)NC(=O)[C@H](Cc1ccccc1)NC(=O)[C@H](CCC(=O)O)NC(=O)[C@H](C)NC(=O)[C@H](CC(C)C)NC(=O)[C@H](CCCNC(=N)N)NC(=O)[C@H](CCC(N)=O)NC(=O)[C@@H](NC(=O)[C@H](C)NC(=O)[C@@H]1CSSC[C@H](NC(=O)[C@@H](N)CCCCNC(=O)CC[C@H](NC(=O)CCCCCCCCCCCCCCCCCCC(=O)O)C(=O)O)C(=O)N[C@@H](CC(N)=O)C(=O)N[C@@H]([C@@H](C)O)C(=O)N[C@@H](C)C(=O)N[C@@H]([C@@H](C)O)C(=O)N1)[C@@H](C)O)C(=O)N1CCC[C@H]1C(=O)N[C@@H](CO)C(=O)N[C@@H](CO)C(=O)N[C@H](C(=O)N[C@@H](CC(N)=O)C(=O)N[C@H](C(=O)NCC(=O)N[C@@H](Cc1c[nH]cn1)C(=O)N[C@@H](CCC(=O)O)C(=O)N[C@H](C(=O)N[C@@H](Cc1ccc(O)cc1)C(N)=O)[C@@H](C)O)C(C)C)[C@@H](C)O
notes: also called compound 107
IC50 [1]: 387 pM
Ratio hCT/hAmylin funct. [2]: 6.3
hAmylin-R funct. EC50 [2]: 405 pM
hCTR funct. EC50 [3]: 2540 pM

B4: N^ε1-[(4S)-4-carboxy-4-(19-carboxynonadecanoylamino)butanoyl]-[Glu14,Arg17,Pro21,Pro27,Pro34,Pro37]-h-amylin (peptide)
peptide: K([γGlu-C20 diacid])CNTATCATQRLAEFLRHSSPNFGAIPSSTNVGPNTP-NH2
modifications: disulfide 2-7; N-terminus assumed
SMILES: CC[C@H](C)[C@H](NC(=O)[C@H](C)NC(=O)CNC(=O)[C@H](Cc1ccccc1)NC(=O)[C@H](CC(N)=O)NC(=O)[C@@H]1CCCN1C(=O)[C@H](CO)NC(=O)[C@H](CO)NC(=O)[C@H](Cc1c[nH]cn1)NC(=O)[C@H](CCCNC(=N)N)NC(=O)[C@H](CC(C)C)NC(=O)[C@H](Cc1ccccc1)NC(=O)[C@H](CCC(=O)O)NC(=O)[C@H](C)NC(=O)[C@H](CC(C)C)NC(=O)[C@H](CCCNC(=N)N)NC(=O)[C@H](CCC(N)=O)NC(=O)[C@@H](NC(=O)[C@H](C)NC(=O)[C@@H]1CSSC[C@H](NC(=O)[C@@H](N)CCCCNC(=O)CC[C@H](NC(=O)CCCCCCCCCCCCCCCCCCC(=O)O)C(=O)O)C(=O)N[C@@H](CC(N)=O)C(=O)N[C@@H]([C@@H](C)O)C(=O)N[C@@H](C)C(=O)N[C@@H]([C@@H](C)O)C(=O)N1)[C@@H](C)O)C(=O)N1CCC[C@H]1C(=O)N[C@@H](CO)C(=O)N[C@@H](CO)C(=O)N[C@H](C(=O)N[C@@H](CC(N)=O)C(=O)N[C@H](C(=O)NCC(=O)N1CCC[C@H]1C(=O)N[C@@H](CC(N)=O)C(=O)N[C@H](C(=O)N1CCC[C@H]1C(N)=O)[C@@H](C)O)C(C)C)[C@@H](C)O
IC50 [1]: 214 pM
Ratio hCT/hAmylin funct. [2]: 0.9
hAmylin-R funct. EC50 [2]: 105 pM
hCTR funct. EC50 [3]: 90 pM

Binder: K([γGlu-C20 diacid])CNTATCATQRLAEFLRHSSPNFGAIPSSTNVGPHTY-NH2 (disulfide 2-7)
IC50 [1]: 179 pM
hAmylin-R funct. EC50 [2]: 101 pM
hCTR funct. EC50 [3]: 1450 pM

B5: N^ε1-[(4S)-4-carboxy-4-[[(4S)-4-carboxy-4-(19-carboxynonadecanoylamino)butanoyl]amino]butanoyl]-[Glu14,Arg17,Pro21,Pro27,Arg34,Glu35]-h-amylin (peptide)
peptide: K([γGlu-γGlu-C20 diacid])CNTATCATQRLAEFLRHSSPNFGAIPSSTNVGRETY-NH2
modifications: disulfide 2-7; N-terminus assumed
SMILES: CC[C@H](C)[C@H](NC(=O)[C@H](C)NC(=O)CNC(=O)[C@H](Cc1ccccc1)NC(=O)[C@H](CC(N)=O)NC(=O)[C@@H]1CCCN1C(=O)[C@H](CO)NC(=O)[C@H](CO)NC(=O)[C@H](Cc1c[nH]cn1)NC(=O)[C@H](CCCNC(=N)N)NC(=O)[C@H](CC(C)C)NC(=O)[C@H](Cc1ccccc1)NC(=O)[C@H](CCC(=O)O)NC(=O)[C@H](C)NC(=O)[C@H](CC(C)C)NC(=O)[C@H](CCCNC(=N)N)NC(=O)[C@H](CCC(N)=O)NC(=O)[C@@H](NC(=O)[C@H](C)NC(=O)[C@@H]1CSSC[C@H](NC(=O)[C@@H](N)CCCCNC(=O)CC[C@H](NC(=O)CC[C@H](NC(=O)CCCCCCCCCCCCCCCCCCC(=O)O)C(=O)O)C(=O)O)C(=O)N[C@@H](CC(N)=O)C(=O)N[C@@H]([C@@H](C)O)C(=O)N[C@@H](C)C(=O)N[C@@H]([C@@H](C)O)C(=O)N1)[C@@H](C)O)C(=O)N1CCC[C@H]1C(=O)N[C@@H](CO)C(=O)N[C@@H](CO)C(=O)N[C@H](C(=O)N[C@@H](CC(N)=O)C(=O)N[C@H](C(=O)NCC(=O)N[C@@H](CCCNC(=N)N)C(=O)N[C@@H](CCC(=O)O)C(=O)N[C@H](C(=O)N[C@@H](Cc1ccc(O)cc1)C(N)=O)[C@@H](C)O)C(C)C)[C@@H](C)O
IC50 [1]: 957 pM
hAmylin-R funct. EC50 [2]: 703 pM
hCTR funct. EC50 [3]: 7430 pM

Now those with a lower IC50 [1], led by results:

IC50 [1]: 163 pM
hAmylin-R funct. EC50 [2]: 376 pM
hCTR funct. EC50 [3]: 6380 pM
B3: N^ε1-[(4S)-4-carboxy-4-(19-carboxynonadecanoylamino)butanoyl]-[Glu14,Arg17,Pro21,Pro27,Pro34,Arg35]-h-amylin (peptide)
peptide: K([γGlu-C20 diacid])CNTATCATQRLAEFLRHSSPNFGAIPSSTNVGPRTY-NH2
modifications: disulfide 2-7; N-terminus assumed
SMILES: CC[C@H](C)[C@H](NC(=O)[C@H](C)NC(=O)CNC(=O)[C@H](Cc1ccccc1)NC(=O)[C@H](CC(N)=O)NC(=O)[C@@H]1CCCN1C(=O)[C@H](CO)NC(=O)[C@H](CO)NC(=O)[C@H](Cc1c[nH]cn1)NC(=O)[C@H](CCCNC(=N)N)NC(=O)[C@H](CC(C)C)NC(=O)[C@H](Cc1ccccc1)NC(=O)[C@H](CCC(=O)O)NC(=O)[C@H](C)NC(=O)[C@H](CC(C)C)NC(=O)[C@H](CCCNC(=N)N)NC(=O)[C@H](CCC(N)=O)NC(=O)[C@@H](NC(=O)[C@H](C)NC(=O)[C@@H]1CSSC[C@H](NC(=O)[C@@H](N)CCCCNC(=O)CC[C@H](NC(=O)CCCCCCCCCCCCCCCCCCC(=O)O)C(=O)O)C(=O)N[C@@H](CC(N)=O)C(=O)N[C@@H]([C@@H](C)O)C(=O)N[C@@H](C)C(=O)N[C@@H]([C@@H](C)O)C(=O)N1)[C@@H](C)O)C(=O)N1CCC[C@H]1C(=O)N[C@@H](CO)C(=O)N[C@@H](CO)C(=O)N[C@H](C(=O)N[C@@H](CC(N)=O)C(=O)N[C@H](C(=O)NCC(=O)N1CCC[C@H]1C(=O)N[C@@H](CCCNC(=N)N)C(=O)N[C@H](C(=O)N[C@@H](Cc1ccc(O)cc1)C(N)=O)[C@@H](C)O)C(C)C)[C@@H](C)O

IC50 [1]: 140 pM
Ratio hCT/hAmylin funct. [2]: 5.2
hAmylin-R funct. EC50 [2]: 161 pM
hCTR funct. EC50 [3]: 841 pM
B2: N^ε1-[(4S)-4-carboxy-4-(19-carboxynonadecanoylamino)butanoyl]-[Glu14,Arg17,Pro21,Pro27,Pro34,Glu35]-h-amylin (peptide)
peptide: K([γGlu-C20 diacid])CNTATCATQRLAEFLRHSSPNFGAIPSSTNVGPETY-NH2
modifications: disulfide 2-7; N-terminus assumed
SMILES: CC[C@H](C)[C@H](NC(=O)[C@H](C)NC(=O)CNC(=O)[C@H](Cc1ccccc1)NC(=O)[C@H](CC(N)=O)NC(=O)[C@@H]1CCCN1C(=O)[C@H](CO)NC(=O)[C@H](CO)NC(=O)[C@H](Cc1c[nH]cn1)NC(=O)[C@H](CCCNC(=N)N)NC(=O)[C@H](CC(C)C)NC(=O)[C@H](Cc1ccccc1)NC(=O)[C@H](CCC(=O)O)NC(=O)[C@H](C)NC(=O)[C@H](CC(C)C)NC(=O)[C@H](CCCNC(=N)N)NC(=O)[C@H](CCC(N)=O)NC(=O)[C@@H](NC(=O)[C@H](C)NC(=O)[C@@H]1CSSC[C@H](NC(=O)[C@@H](N)CCCCNC(=O)CC[C@H](NC(=O)CCCCCCCCCCCCCCCCCCC(=O)O)C(=O)O)C(=O)N[C@@H](CC(N)=O)C(=O)N[C@@H]([C@@H](C)O)C(=O)N[C@@H](C)C(=O)N[C@@H]([C@@H](C)O)C(=O)N1)[C@@H](C)O)C(=O)N1CCC[C@H]1C(=O)N[C@@H](CO)C(=O)N[C@@H](CO)C(=O)N[C@H](C(=O)N[C@@H](CC(N)=O)C(=O)N[C@H](C(=O)NCC(=O)N1CCC[C@H]1C(=O)N[C@@H](CCC(=O)O)C(=O)N[C@H](C(=O)N[C@@H](Cc1ccc(O)cc1)C(N)=O)[C@@H](C)O)C(C)C)[C@@H](C)O
